US20240209086A1 (PETMEDIX, published 2024)
Positions count from the first letter of the chain named.

T1: canine CD20 on cells (HEK293, MDCK II, CLBL-1 or native B cells) (canine, UniProt Q3C2E2 1-297)
T1 construct: also called dCD20; cCD20
T1 chain: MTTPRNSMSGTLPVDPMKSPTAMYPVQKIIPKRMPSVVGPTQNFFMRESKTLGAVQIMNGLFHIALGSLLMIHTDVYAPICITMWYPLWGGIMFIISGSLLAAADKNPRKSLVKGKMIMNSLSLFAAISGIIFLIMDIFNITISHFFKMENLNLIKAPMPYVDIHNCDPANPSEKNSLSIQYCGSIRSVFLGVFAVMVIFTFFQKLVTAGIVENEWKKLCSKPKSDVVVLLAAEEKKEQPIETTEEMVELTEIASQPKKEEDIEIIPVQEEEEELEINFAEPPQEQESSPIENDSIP

B1: PMX172 in bispecific format (canine CD3 arm PMX172 x Rituximab arm, human IgG4PE knob-in-hole) (bispecific antibody)
heavy 1: EVQLVESGGDLVKPGGSLRLSCVASGFTFSSYHMSWVRQAPGKGLQWVAYSNSGGSRTSYADAVKGRFTISRDNAKNTLYLQMNSLRAEDTAVYYCASEGGGGRYGYKDYGMDYWGHGTSLFVSSASTKGPSVFPLAPCSRSTSESTAALGCLVKDYFPEPVTVSWNSGALTSGVHTFPAVLQSSGLYSLSSVVTVPSSSLGTKTYTCNVDHKPSNTKVDKRVESKYGPPCPPCPAPEFEGGPSVFLFPPKPKDTLMISRTPEVTCVVVDVSQEDPEVQFNWYVDGVEVHNAKTKPREEQFNSTYRVVSVLTVLHQDWLNGKEYKCKVSNKGLPSSIEKTISKAKGQPREPQVYTLPPSQCEMTKNQVSLSCAVKGFYPSDIAVEWESNGQPENNYKTTPPVLDSDGSFFLVSRLTVDKSRWQEGNVFSCSVMHEALHNRFTQKSLSLSLGK
light 1: SYVLTQLPSKNVTLKQPAHITCGGDNIGSKSVHWYQQKLGQAPVLIIYYDSSRPTGIPERFSGANSGNTATLTISGALAEDEADYYCQVWDSSAKAWVFGEGTQLTVLRTVAAPSVFIFPPSDEQLKSGTASVVCLLNNFYPREAKVQWKVDNALQSGNSQESVTEQDSKDSTYSLSSTLTLSKADYEKHKVYACEVTHQGLSSPVTKSFNRGEC
heavy 2: not shown
light 2: QIVLSQSPAILSASPGEKVTMTCRASSSVSYIHWFQQKPGSSPKPWIYATSNLASGVPVRFSGSGSGTSYSLTISRVEAEDAATYYCQQWTSNPPTFGGGTKLEIKRTVAAPSVFIFPPSDEQLKSGTASVVCLLNNFYPREAKVQWKVDNALQSGNSQESVTEQDSKDSTYSLSSTLTLSKADYEKHKVYACEVTHQGLSSPVTKSFNRGEC
B2: PMX189 in bispecific format (canine CD3 arm PMX189 x Rituximab arm, human IgG4PE knob-in-hole) (bispecific antibody)
heavy 1: ELTLQESGPGLVKPSQTLSLTCVVSGGSVTNNYYWNWIRQRPGRGLEWMGYWTGSTKYNPAFQGRISITADTANNQFSLHLNSMSSEDTAVYYCARDRDRRVPHAYGYWGQGTLVTVSSASTKGPSVFPLAPCSRSTSESTAALGCLVKDYFPEPVTVSWNSGALTSGVHTFPAVLQSSGLYSLSSVVTVPSSSLGTKTYTCNVDHKPSNTKVDKRVESKYGPPCPPCPAPEFEGGPSVFLFPPKPKDTLMISRTPEVTCVVVDVSQEDPEVQFNWYVDGVEVHNAKTKPREEQFNSTYRVVSVLTVLHQDWLNGKEYKCKVSNKGLPSSIEKTISKAKGQPREPQVYTLPPSQCEMTKNQVSLSCAVKGFYPSDIAVEWESNGQPENNYKTTPPVLDSDGSFFLVSRLTVDKSRWQEGNVFSCSVMHEALHNRFTQKSLSLSLGK
light 1: B1 light 1 with W97S, E101G, Q104H
heavy 2: not shown
light 2: B1 light 2
B3: PMX170 in bispecific format (canine CD3 arm PMX170 x Rituximab arm, human IgG4PE knob-in-hole) (bispecific antibody)
heavy 1: B1 heavy 1 with N84S, Y107F
light 1: B1 light 1
heavy 2: not shown
light 2: B1 light 2
B4: PMX190 in bispecific format (canine CD3 arm PMX190 x Rituximab arm, human IgG4PE knob-in-hole) (bispecific antibody)
heavy 1: EVQLVESGGDLVKPGGSLRLSCVASGFTFSSYQMSWVRQAPGKGLQWVAYISSGGGRTTYADAVRGRLTISRDNAKNTLYLQMNSLRAEDAAVYYCAREGGGEIYGYKDYGMDYWGHGTSLFVSSASTKGPSVFPLAPCSRSTSESTAALGCLVKDYFPEPVTVSWNSGALTSGVHTFPAVLQSSGLYSLSSVVTVPSSSLGTKTYTCNVDHKPSNTKVDKRVESKYGPPCPPCPAPEFEGGPSVFLFPPKPKDTLMISRTPEVTCVVVDVSQEDPEVQFNWYVDGVEVHNAKTKPREEQFNSTYRVVSVLTVLHQDWLNGKEYKCKVSNKGLPSSIEKTISKAKGQPREPQVYTLPPSQCEMTKNQVSLSCAVKGFYPSDIAVEWESNGQPENNYKTTPPVLDSDGSFFLVSRLTVDKSRWQEGNVFSCSVMHEALHNRFTQKSLSLSLGK
light 1: B1 light 1
heavy 2: not shown
light 2: B1 light 2
B5: PMX186 in bispecific format (canine CD3 arm PMX186 x Rituximab arm, human IgG4PE knob-in-hole) (bispecific antibody)
heavy 1: B1 heavy 1 with Q3K, F27V, S31R, H33Y, S51I, R57T, G101V, G103E, R104I, Y110F
light 1: B1 light 1 with S52R
heavy 2: not shown
light 2: B1 light 2
B6: PMX169 in bispecific format (canine CD3 arm PMX169 x Rituximab arm, human IgG4PE knob-in-hole) (bispecific antibody)
heavy 1: B1 heavy 1 with L4V, A24T, T28A, S30N, S31N, S51I, T58I, G103E, R104I, Y107F
light 1: B1 light 1
heavy 2: not shown
light 2: B1 light 2
B7: PMX171 in bispecific format (canine CD3 arm PMX171 x Rituximab arm, human IgG4PE knob-in-hole) (bispecific antibody)
heavy 1: B1 heavy 1 with V23E, S51I, S53N, R57G, Y95F, G103K
light 1: B1 light 1
heavy 2: not shown
light 2: B1 light 2
B8: PMX235 (monospecific anti-canine CD20, canine IgG-B, lambda C5) (antibody, V domains shown)
VH: EVQLVESGGDLVKPGGSLRLSCVASGITFSRYYMNWVRQAPGKGLQWVAYINTGESSTIYSDAVKGRFTISRDNAKNTLYLQMNSLRAEDTAVYYCTTLEYWGQGTLVTVSS
VL: SYVLTQLPSKNVTLKQPAHITCGGDNIGSKSVHWYQQKLGQAPALIIYYDNRRPTGIPERFSGANSGNTATLTISGALAEDEADYYCQVWDSSDNVFGGGTHLTVLG
B9: PMX270 (monospecific anti-canine CD20, canine IgG-B, lambda C5) (antibody, V domains shown)
VH: B8 VH with I27F, N35T, T53S, G54D, E55R, S56R, I59T, S61A
VL: B8 VL with A44V, N51S, S75N, D94A
B10: PMX255 (monospecific anti-canine CD20, canine IgG-B, lambda C5) (antibody, V domains shown)
VH: EVQLVESGGDLVKPGGSLRLSCVASGFTFSRYHMSWIRQAPGKGLQWVAFIDSDGSGARYADAVKGRFTFSRDNAKNTLYLQMNSLRAEDTAVYYCTSLEYWGQGTLVTVSS
VL: B8 VL with I27V, A44V, N51S, D94A
B11: PMX269 (monospecific anti-canine CD20, canine IgG-B, lambda C5) (antibody, V domains shown)
VH: EVRLVESGGDLVKPGGSLRLSCVASGLTFNRYYMSWVRQGPGKGLQWVAYIDSGGSPTTYADTVKGRFTISRDNAKNTLYLQMNSLRVEDTAVYYCTTLEYWGQGTLVTVSS
VL: B8 VL with A44V, N51S, R52S, S92T, D94A
B12: PMX241 (monospecific anti-canine CD20, canine IgG-B, lambda C5) (antibody, V domains shown)
VH: EVQLVESGGDLVKPGGSLRLSCVASGITFSGYHMSWVRQAPGKGLQWVAFINSGRRSTSYADAVKGRFTISRDNAKNTLYLQMNSLRAEDTAIYYCTTLEFWGQGTLVTVSS
VL: B8 VL with A44V, N51S, S75N, V89M, D94V
B13: PMX268 (monospecific anti-canine CD20, canine IgG-B, lambda C5) (antibody, V domains shown)
VH: B12 VH with V12M, R56K, S57N, S59A
VL: B8 VL with S31N, A44V, N51S, A64V, S75N, V89M, D94A
B14: PMX254 (monospecific anti-canine CD20, canine IgG-B, lambda C5) (antibody, V domains shown)
VH: B10 VH with A58T, N84S, Y101F
VL: B8 VL with A44V, N51S, R52S, D94A
B15: PMX271 (monospecific anti-canine CD20, canine IgG-B, lambda C5) (antibody, V domains shown)
VH: AVQLVESGGDLVKPGGSLRLSCVASGITFSRYHMSWVRQAPGKGLQWVAYINSGGSATSYTDAVKGRFSISRDNGKNTLYLQMNSLRVEDSAVYYCTTLDLWGQGTLVTVSS
VL: B8 VL with A44V, N51S, S75N, V89M, D94A

The binders below were run against canine CD3 on canine T cells (canine PBMC) (canine, UniProt P27597 22-202) (assay: cell-based or functional assay).
Chain of canine CD3 on canine T cells (canine PBMC) (P27597 22-202 limits assumed, chain 1 of 3): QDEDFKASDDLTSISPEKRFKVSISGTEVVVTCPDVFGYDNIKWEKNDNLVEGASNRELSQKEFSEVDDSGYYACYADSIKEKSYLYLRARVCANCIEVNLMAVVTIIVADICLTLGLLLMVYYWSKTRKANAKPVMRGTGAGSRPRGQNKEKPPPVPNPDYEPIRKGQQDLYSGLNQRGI
Chain of canine CD3 on canine T cells (canine PBMC) (chain, as listed by the source limits assumed, chain 2 of 3): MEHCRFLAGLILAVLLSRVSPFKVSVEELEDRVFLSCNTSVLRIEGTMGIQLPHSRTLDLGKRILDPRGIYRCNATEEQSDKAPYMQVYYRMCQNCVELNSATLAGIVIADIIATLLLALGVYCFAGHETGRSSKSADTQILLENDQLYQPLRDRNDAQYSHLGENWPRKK
Chain of canine CD3 on canine T cells (canine PBMC) (chain, as listed by the source limits assumed, chain 3 of 3): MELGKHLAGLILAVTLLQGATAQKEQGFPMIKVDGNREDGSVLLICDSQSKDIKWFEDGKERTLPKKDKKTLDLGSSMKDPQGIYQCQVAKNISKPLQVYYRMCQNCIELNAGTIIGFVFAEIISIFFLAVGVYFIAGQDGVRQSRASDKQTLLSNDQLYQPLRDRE

Binder | EC50 (M) of killing potency, bispecific killing of hCD20+GFP MDCK II cells by canine PBMC
B1 | 4.66e-09 M
B2 | 1.1e-08 M
B3 | 3.32e-09 M
B4 | 1e-08 M
B5 | 1.29e-08 M
B6 | 1.4e-08 M
B7 | 8.52e-09 M

Target: T1, canine CD20 on cells (HEK293, MDCK II, …)
Test: flow cytometry, canine CD20 HEK293 cells, 10 µg/ml, FITC anti-canine IgG
Description: A CD20 binding screen was performed on candidate proteins produced from the canine CD20 immunisation as described in Examples 2 and 3. CHO cells supernatants containing candidate antibodies were diluted to 10 μg/ml in FACS buffer (PBS containing 3% FBS) and screened for their ability to bind canine CD20 expressed on cell surface. In brief, 1-2×10⁵ canine CD20-expressing HEK cells were incubated with candidate mAbs for one hour at 4° C., at a fixed concentration of 10 μg/ml followed by incubation with 5 μg/ml of FITC-conjugated anti-canine IgG secondary antibody (Bethyl Laboratories) for 1 hour at 4° C. Cells incubated with anti-canine IgG FITC secondary antibody and without primary anti-canine CD20 antibody, or with isotype control primary antibody, were used as negative controls. The data were acquired on either a Beckman Coulter CytoFLEX or a BD Accuri C6 Plus flow cytometer and analysed using FlowJo software.

binding result | Binder
binds | B8
binds | B9
binds | B10
binds | B11
binds | B12
binds | B13
binds | B14
binds | B15

What follows are binders tested against T2, canine CD3εδ-Fc (heterodimer of canine CD3ε-hIgG4PE-knob and canine CD3δ-hIgG4PE-hole) (canine) (assay: SPR (Biacore 8K), CD3εδ-Fc amine-coupled to CM5 chip, multi-cycle kinetics, antibody 600-7.4 nM).
T2 construct: also called CD3εδ-Fc fusion protein; copies: 1 + 1
T2 sequence (chain, as listed by the source mutant limits assumed): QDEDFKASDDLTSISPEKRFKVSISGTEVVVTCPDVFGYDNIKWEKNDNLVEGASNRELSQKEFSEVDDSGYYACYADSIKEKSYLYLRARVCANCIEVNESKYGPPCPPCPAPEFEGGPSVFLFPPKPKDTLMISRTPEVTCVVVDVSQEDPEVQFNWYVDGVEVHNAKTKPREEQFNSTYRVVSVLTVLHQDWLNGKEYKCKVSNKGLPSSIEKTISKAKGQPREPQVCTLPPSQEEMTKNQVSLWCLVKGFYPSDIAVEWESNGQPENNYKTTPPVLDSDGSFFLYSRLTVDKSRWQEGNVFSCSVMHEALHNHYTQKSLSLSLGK
Description: Binding affinity of shortlisted candidates, described in Example 3, were assessed using Biacore 8K (Cytiva). Briefly, a CM5 Sensor Chip (Cytiva) was docked onto a Biacore 8K, equilibrated for 30′ at RT and then Running Buffer (10 mM HEPES pH6 150 mM NaCl 3 mM EDTA and 0.005% Tween20) was applied to the SPR chip surface. Canine CD3εδ-Fc was diluted into 10 mM acetate buffer pH4.5 and immobilised using standard amine coupling reaction. Antibodies dilutions were prepared by diluting the shortlisted candidates from 600 nM to 7.4 nM (5 concentrations with 1:3 dilutions) in running buffer and kinetics was assessed using multi-cycle kinetics method (120 sec association-300 sec dissociation). Kinetics and/or Affinity quantification was performed using Biacore Insight following standard analyses methods.

Kd | Binder
447 nM | B1
177 nM | B2
304 nM | B3
999 nM | B4
513 nM | B5
854 nM | B6
517 nM | B7
